In patent US20230407373A1 (priority 2020, published 2023):
Where two headings read alike, the source gives them in different places.

Key:
Assay type in all cases: binding
SARS-CoV-2 gRNA = settings: […]; LC-MS/MS; Probe I sample (first 199 lines of Table 2)
[1] = system: SARS-CoV-2 gRNA and sgRNAs; settings: for target (unweighted spectral count in RNP capture): Probe II capture, LC-MS/MS LFQ; for background (unweighted spectral count in control): no-probe control pull-down, used as background for Probe II; for target (unweighted spectral count of the protein in the RNP capture experiment): LC-MS/MS label-free quantification, probe pool not given; for back-ground (unweighted spectral count of the protein in the control experiment): protein background of the control (e.g. no-probe) experiment
gRNA of HCoV-OC43 = settings: type n_48_v: 48 hours post-infection; for target (spectral count, OC43 Probe I RNP capture): infected cells, unweighted spectral count; for background (spectral count, no-probe control): no-probe control on infected cells
HCoV-OC43 gRNA and sgRNA = settings: for target (unweighted spectral count, OC43 Probe II capture): type n_36_v, FDR<10%; for target (unweighted spectral count, OC43 Probe II capture) / target (unweighted spectral count): tested against no-probe control; for target (unweighted spectral count): OC43 Probe II, infected cells; for target (unweighted spectral count, OC43 Probe II) / background (unweighted spectral count, no-probe control): type n_48_v, 48 hpi; for target (unweighted spectral count, OC43 Probe II): OC43 Probe II capture on infected cells; for background (unweighted spectral count, no-probe control): no-probe control on infected cells

B1: DHX30 (protein, UniProt Q7L2E3 1-1194, looked up)
ATP-dependent RNA helicase …: MFSLDSFRKDRAQHRQRQCKLPPPRLPPMCVNPTPGGTISRASRDLLKEFPQPKNLLNSVIGRALGISHAKDKLVYVHTNGPKKKKVTLHIKWPKSVEVEGYGSKKIDAERQAAAAACQLFKGWGLLGPRNELFDAAKYRVLADRFGSPADSWWRPEPTMPPTSWRQLNPESIRPGGPGGLSRSLGREEEEDEEEELEEGTIDVTDFLSMTQQDSHAPLRDSRGSSFEMTDDDSAIRALTQFPLPKNLLAKVIQIATSSSTAKNLMQFHTVGTKTKLSTLTLLWPCPMTFVAKGRRKAEAENKAAALACKKLKSLGLVDRNNEPLTHAMYNLASLRELGETQRRPCTIQVPEPILRKIETFLNHYPVESSWIAPELRLQSDDILPLGKDSGPLSDPITGKPYVPLLEAEEVRLSQSLLELWRRRGPVWQEAPQLPVDPHRDTILNAIEQHPVVVISGDTGCGKTTRIPQLLLERYVTEGRGARCNVIITQPRRISAVSVAQRVSHELGPSLRRNVGFQVRLESKPPSRGGALLFCTVGILLRKLQSNPSLEGVSHVIVDEVHERDVNTDFLLILLKGLQRLNPALRLVLMSATGDNERFSRYFGGCPVIKVPGFMYPVKEHYLEDILAKLGKHQYLHRHRHHESEDECALDLDLVTDLVLHIDARGEPGGILCFLPGWQEIKGVQQRLQEALGMHESKYLILPVHSNIPMMDQKAIFQQPPVGVRKIVLATNIAETSITINDIVHVVDSGLHKEERYDLKTKVSCLETVWVSRANVIQRRGRAGRCQSGFAYHLFPRSRLEKMVPFQVPEILRTPLENLVLQAKIHMPEKTAVEFLSKAVDSPNIKAVDEAVILLQEIGVLDQREYLTTLGQRLAHISTDPRLAKAIVLAAIFRCLHPLLVVVSCLTRDPFSSSLQNRAEVDKVKALLSHDSGSDHLAFVRAVAGWEEVLRWQDRSSRENYLEENLLYAPSLRFIHGLIKQFSENIYEAFLVGKPSDCTLASAQCNEYSEEEELVKGVLMAGLYPNLIQVRQGKVTRQGKFKPNSVTYRTKSGNILLHKSTINREATRLRSRWLTYFMAVKSNGSVFVRDSSQVHPLAVLLLTDGDVHIRDDGRRATISLSDSDLLRLEGDSRTVRLLKELRRALGRMVERSLRSELAALPPSVQEEHGQLLALLAELLRGPCGSFDVRKTADD
In the case of B1, the “target (unweighted spectral count of the protein in the RNP capture)” value (SARS-CoV-2 gRNA) is reported as 13.

B2: SYNCRIP: host protein, UniProt O60506 (protein, UniProt O60506 2-623, looked up)
Heterogeneous nuclear …: ATEHVNGNGTEEPMDTTSAVIHSENFQTLLDAGLPQKVAEKLDEIYVAGLVAHSDLDERAIEALKEFNEDGALAVLQQFKDSDLSHVQNKSAFLCGVMKTYRQREKQGTKVADSSKGPDEAKIKALLERTGYTLDVTTGQRKYGGPPPDSVYSGQQPSVGTEIFVGKIPRDLFEDELVPLFEKAGPIWDLRLMMDPLTGLNRGYAFVTFCTKEAAQEAVKLYNNHEIRSGKHIGVCISVANNRLFVGSIPKSKTKEQILEEFSKVTEGLTDVILYHQPDDKKKNRGFCFLEYEDHKTAAQARRRLMSGKVKVWGNVGTVEWADPIEDPDPEVMAKVKVLFVRNLANTVTEEILEKAFSQFGKLERVKKLKDYAFIHFDERDGAVKAMEEMNGKDLEGENIEIVFAKPPDQKRKERKAQRQAAKNQMYDDYYYYGPPHMPPPTRGRGRGGRGGYGYPPDYYGYEDYYDYYGYDYHNYRGGYEDPYYGYEDFQVGARGRGGRGARGAAPSRGRGAAPPRGRAGYSQRGGPGSARGVRGARGGAQQQRGRGVRGARGGRGGNVGGKRKADGYNQPDSKRRQTNNQNWGSQPIAQQPLQGGDHSGNYGYKSENQEFYQDTFGQQWK
For B2, the “target (unweighted spectral count in RNP capture)” value [1] was 159, the “background (unweighted spectral count in control)” value [1] was 1 and the “target (spectral count, OC43 Probe I RNP capture)” value (gRNA of HCoV-OC43) was 88. For the same molecule, the “background (spectral count, no-probe control)” value (gRNA of HCoV-OC43) was 7, the “target (unweighted spectral count, OC43 Probe II capture)” value (HCoV-OC43 gRNA and sgRNA; 36 hpi) was 97 and the “target (unweighted spectral count)” value (HCoV-OC43 gRNA and sgRNA; 12 hpi (type n_12_v)) was 33. For the same molecule, the “target (unweighted spectral count)” value (HCoV-OC43 gRNA and sgRNA; 24 hpi (type n_24_v)) was 55, the “target (unweighted spectral count, OC43 Probe II)” value (HCoV-OC43 gRNA and sgRNA) was 87 and the “background (unweighted spectral count, no-probe control)” value (HCoV-OC43 gRNA and sgRNA) was 7. For the same molecule, the “target (spectral count)” value (HCoV-OC43 gRNA and sgRNA; type s_36_m, HCoV-OC43-infected HCT-8 cells, 36 hpi, Probe II) was 97 and the “background (spectral count)” value (HCoV-OC43 gRNA and sgRNA; type s_36_m, uninfected-probe control, 36 hpi, Probe II) was 23.

B3: HNRNPC (protein, UniProt P07910 2-306, looked up)
Heterogeneous nuclear …: ASNVTNKTDPRSMNSRVFIGNLNTLVVKKSDVEAIFSKYGKIVGCSVHKGFAFVQYVNERNARAAVAGEDGRMIAGQVLDINLAAEPKVNRGKAGVKRSAAEMYGSVTEHPSPSPLLSSSFDLDYDFQRDYYDRMYSYPARVPPPPPIARAVVPSKRQRVSGNTSRRGKSGFNSKSGQRGSSKSGKLKGDDLQAIKKELTQIKQKVDSLLENLEKIEKEQSKQAVEMKNDKSEEEQSSSSVKKDETNVKMESEGGADDSAEEGDLLDDDDNEDRGDDQLELIKDDEKEAEEGEDDRDSANGEDDS
For B3, the “target (unweighted spectral count in RNP capture)” value [1] was 75, the “background (unweighted spectral count in control)” value [1] was 2 and the “background (spectral count, no-probe control)” value (gRNA of HCoV-OC43) was 19. The “target (unweighted spectral count, OC43 Probe II capture)” value (HCoV-OC43 gRNA and sgRNA; 36 hpi) was 69, the “target (unweighted spectral count)” value (HCoV-OC43 gRNA and sgRNA; 12 hpi (type n_12_v)) was 30 and the “target (unweighted spectral count)” value (HCoV-OC43 gRNA and sgRNA; 24 hpi (type n_24_v)) was 40. For the same molecule, the “target (unweighted spectral count, OC43 Probe II)” value (HCoV-OC43 gRNA and sgRNA) was 88 and the “background (unweighted spectral count, no-probe control)” value (HCoV-OC43 gRNA and sgRNA) was 19.

B4: UBAP2L (protein, UniProt Q14157 1-1087, looked up)
Ubiquitin-associated protein …: MMTSVGTNRARGNWEQPQNQNQTQHKQRPQATAEQIRLAQMISDHNDADFEEKVKQLIDITGKNQDECVIALHDCNGDVNRAINVLLEGNPDTHSWEMVGKKKGVSGQKDGGQTESNEEGKENRDRDRDYSRRRGGPPRRGRGASRGREFRGQENGLDGTKSGGPSGRGTERGRRGRGRGRGGSGRRGGRFSAQGMGTFNPADYAEPANTDDNYGNSSGNTWNNTGHFEPDDGTSAWRTATEEWGTEDWNEDLSETKIFTASNVSSVPLPAENVTITAGQRIDLAVLLGKTPSTMENDSSNLDPSQAPSLAQPLVFSNSKQTAISQPASGNTFSHHSMVSMLGKGFGDVGEAKGGSTTGSQFLEQFKTAQALAQLAAQHSQSGSTTTSSWDMGSTTQSPSLVQYDLKNPSDSAVHSPFTKRQAFTPSSTMMEVFLQEKSPAVATSTAAPPPPSSPLPSKSTSAPQMSPGSSDNQSSSPQPAQQKLKQQKKKASLTSKIPALAVEMPGSADISGLNLQFGALQFGSEPVLSDYESTPTTSASSSQAPSSLYTSTASESSSTISSNQSQESGYQSGPIQSTTYTSQNNAQGPLYEQRSTQTRRYPSSISSSPQKDLTQAKNGFSSVQATQLQTTQSVEGATGSAVKSDSPSTSSIPPLNETVSAASLLTTTNQHSSSLGGLSHSEEIPNTTTTQHSSTLSTQQNTLSSSTSSGRTSTSTLLHTSVESEANLHSSSSTFSTTSSTVSAPPPVVSVSSSLNSGSSLGLSLGSNSTVTASTRSSVATTSGKAPPNLPPGVPPLLPNPYIMAPGLLHAYPPQVYGYDDLQMLQTRFPLDYYSIPFPTPTTPLTGRDGSLASNPYSGDLTKFGRGDASSPAPATTLAQPQQNQTQTHHTTQQTFLNPALPPGYSYTSLPYYTGVPGLPSTFQYGPAVFPVAPTSSKQHGVNVSVNASATPFQQPSGYGSHGYNTGVSVTSSNTGVPDISGSVYSKTQQSFEKQGFHSGTPAASFNLPSALGSGGPINPATAAAYPPAPFMHILTPHQQPHSQILHHHLQQDGQTGSGQRSQTSSIPQKPQTNKSAYNSYSWGAN
For B4, the “target (unweighted spectral count in RNP capture)” value [1] was 17, the “background (unweighted spectral count in control)” value [1] was 1 and the “target (spectral count, OC43 Probe I RNP capture)” value (gRNA of HCoV-OC43) was 6. The “background (spectral count, no-probe control)” value (gRNA of HCoV-OC43) was 1 and the “target (unweighted spectral count, OC43 Probe II capture)” value (HCoV-OC43 gRNA and sgRNA; 36 hpi) was 5.

B5: TIA1 (protein, UniProt P31483 1-386, looked up)
Cytotoxic granule associated …: MEDEMPKTLYVGNLSRDVTEALILQLFSQIGPCKNCKMIMDTAGNDPYCFVEFHEHRHAAAALAAMNGRKIMGKEVKVNWATTPSSQKKDTSSSTVVSTQRSQDHFHVFVGDLSPEITTEDIKAAFAPFGRISDARVVKDMATGKSKGYGFVSFFNKWDAENAIQQMGGQWLGGRQIRTNWATRKPPAPKSTYESNTKQLSYDEVVNQSSPSNCTVYCGGVTSGLTEQLMRQTFSPFGQIMEIRVFPDKGYSFVRFNSHESAAHAIVSVNGTTIEGHVVKCYWGKETLDMINPVQQQNQIGYPQPYGQWGQWYGNAQQIGQYMPNGWQVPAYGMYGQAWNQQGFNQTQSSAPWMGPNYGVQPPQGQNGSMLPNQPSGYRVAGYETQ
In the case of B5, the “target (unweighted spectral count in RNP capture)” value [1] is reported as 11, the “background (unweighted spectral count in control)” value [1] is reported as 1 and the “target (unweighted spectral count, OC43 Probe II capture)” value (HCoV-OC43 gRNA and sgRNA; 36 hpi) is reported as 6.

B6: CHTOP (protein, UniProt Q9Y3Y2 2-248, looked up)
Chromatin target of PRMT1 …: AAQSAPKVVLKSTTKMSLNERFTNMLKNKQPTPVNIRASMQQQQQLASARNRRLAQQMENRPSVQAALKLKQSLKQRLGKSNIQARLGRPIGALARGAIGGRGLPIIQRGLPRGGLRGGRATRTLLRGGMSLRGQNLLRGGRAVAPRMGLRRGGVRGRGGPGRGGLGRGAMGRGGIGGRGRGMIGRGRGGFGGRGRGRGRGRGALARPVLTKEQLDNQLDAYMSKTKGHLDAELDAYMAQTDPETND
For B6, the “target (unweighted spectral count of the protein in the RNP capture experiment)” value [1] was 5, the “back-ground (unweighted spectral count of the protein in the control experiment)” value [1] was 1 and the “target (spectral count, OC43 Probe I RNP capture)” value (gRNA of HCoV-OC43) was 6. The “background (spectral count, no-probe control)” value (gRNA of HCoV-OC43) was 1, the “target (unweighted spectral count, OC43 Probe II capture)” value (HCoV-OC43 gRNA and sgRNA; 36 hpi) was 5 and the “target (unweighted spectral count, OC43 Probe II)” value (HCoV-OC43 gRNA and sgRNA) was 6. For the same molecule, the “background (unweighted spectral count, no-probe control)” value (HCoV-OC43 gRNA and sgRNA) was 1.

B7: PURB (protein, UniProt Q96QR8 2-312, looked up)
Transcriptional regulator …: ADGDSGSERGGGGGPCGFQPASRGGGEQETQELASKRLDIQNKRFYLDVKQNAKGRFLKIAEVGAGGSKSRLTLSMAVAAEFRDSLGDFIEHYAQLGPSSPEQLAAGAEEGGGPRRALKSEFLVRENRKYYLDLKENQRGRFLRIRQTVNRGGGGFGAGPGPGGLQSGQTIALPAQGLIEFRDALAKLIDDYGGEDDELAGGPGGGAGGPGGGLYGELPEGTSITVDSKRFFFDVGCNKYGVFLRVSEVKPSYRNAITVPFKAWGKFGGAFCRYADEMKEIQERQRDKLYERRGGGSGGGEESEGEEVDED
With B7 the “target (unweighted spectral count of the protein in the RNP capture experiment)” value [1] was 5, the “back-ground (unweighted spectral count of the protein in the control experiment)” value [1] was 1 and the “target (spectral count, OC43 Probe I RNP capture)” value (gRNA of HCoV-OC43) was 5. For the same molecule, the “background (spectral count, no-probe control)” value (gRNA of HCoV-OC43) was 1, the “target (unweighted spectral count, OC43 Probe II)” value (HCoV-OC43 gRNA and sgRNA) was 5 and the “background (unweighted spectral count, no-probe control)” value (HCoV-OC43 gRNA and sgRNA) was 1.
